Experimental findings from patent publication EP4803546A1 (Beijing Wisdomab Biotechnology Co., Ltd, dated 2026) are described below.

Where two headings read alike, the source gives them in different places.

Assay [1] deals with T1, MIP-P3-His (disulfide trap single-chain trimer of PRAME antigen peptide … and HLA-A24, His tag) (human).
T1 construct: Single polypeptide; His tag added at the C-terminus; also called dtSCT; MIP-P3-His fusion protein
The assay can be described thus: SPR, Biacore T200, as in Section 2.3; MIP-P3-His as analyte.

The target in assay [2] is HLA-A24 complex with Similar Peptide Segment 8 (…, XCR1) on cells (human; human (homo sapiens)). Kind of assay: cell-based or functional assay.
Assay [3] addresses HLA-A24 complex with Similar Peptide Segment 16 (…, PLD1) on cells (human; human (homo sapiens)). The assay can be described thus: cell-based or functional assay.
For assay [4], the target named is HLA-A24 complex with Similar Peptide Segment 12 (…, CPVL) on cells (human; human (homo sapiens)). Kind of assay: cell-based or functional assay.
Assay [5] addresses HLA-A24/PRAME complex: PRAME301-309 (…) presented by HLA-A24 on cells (human; human (homo sapiens)). The assay can be described thus: cell-based or functional assay.
Assay [6] has as its target HLA-A24 complex with Similar Peptide Segment 11 (…, KIFBP) on cells (human; human (homo sapiens)). The assay can be described thus: cell-based or functional assay.
Assay [7] addresses T1, MIP-P3-His (disulfide trap single-chain …). The assay can be described thus: SPR, Biacore T200, as in Section 2.3; MIP-P3-His as analyte. This is another data set of the same source. Background: In SPR one partner is held on a chip, and binding of the other changes the refractive index at the surface.
Assay [8] concerns the target T2, CD3 (recombinant, as analyte of Table 4) (human (homo sapiens), UniProt P07766 23-126; P04234 22-105).
T2 construct: That the analyte was a CD3E/CD3D pair is an inference; also called hCD3E; hCD3D
The assay can be described thus: SPR, Biacore T200, as in Section 2.3; CD3 as analyte.

T2 sequence (P07766 23-126, chain 1 of 2): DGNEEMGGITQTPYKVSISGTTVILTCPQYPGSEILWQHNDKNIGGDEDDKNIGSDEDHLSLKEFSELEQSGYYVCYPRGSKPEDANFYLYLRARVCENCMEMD
T2 sequence (P04234 22-105, chain 2 of 2): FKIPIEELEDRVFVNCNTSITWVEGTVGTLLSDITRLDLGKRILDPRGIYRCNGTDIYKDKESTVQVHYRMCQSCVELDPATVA

B1: humanized bispecific antibody 2N83G3-h5×IMCR (bispecific antibody)
chain 1: EVQLVESGGGLVKPGGSLRLSCAASGASLDIYVMGWYRQAPGKGLELVAVITGSGNTNYADSVKGRFTISRDDSKNTLYLQMNSLKTEDTAVYYCAGGRPSRYYRDSGTWADFWGQGTTVTVSSGGGGSGGGGSGGGGSEVQLVESGGGLVKPGGSLRLSCAASGASLDIYVMGWYRQAPGKGLELVAVITGSGNTNYADSVKGRFTISRDDSKNTLYLQMNSLKTEDTAVYYCAGGRPSRYYRDSGTWADFWGQGTTVTVSSASERKSSVECPPCPAPEFEGGPSVFLFPPKPKDTLMISRTPEVTCVVVDVSQEDPEVQFNWYVDGVEVHNAKTKPREEQYNSTYRVVSVLTVLHQDWLNGKEYKCKVSNKALPASIEKTISKAKGQPREPQVCTLPPSQEEMTKNQVSLSCAVKGFYPSDIAVEWESNGQPENNYKTTPPVLDSDGSFFLVSKLTVDKSRWQEGNVFSCSVMHEALHNHYTQKSLSLSPGK
chain 2: not shown
notes: Arm 1 is 2N83G3-h5-G1m3-FcH1n1 (two tandem N83G3-h5 VHH on the hole Fc); Arm 2 is IMCR-scFv-G1m3-FcKn1 (anti-CD3 scFv on the knob Fc); also called 2N83G3-h5×IMCR BsAb
For the molecule B1, binding in assay [1] was characterised by a dissociation constant (Kd) of 0.065 nM. Besides, the koff (usually the first-order rate constant of dissociation) in assay [1] stood at 8.06e-05 s⁻¹. Further, the kon (commonly the rate constant with which the complex forms) in assay [1] was 1.24e+06 M⁻¹ s⁻¹. For the same molecule, the “EC50 Value (nM) mediating the Activation of Jurkat-Dual Cells” value in assay [2] turned out to be 3.71 nM; in assay [3] it was 1.07 nM; in assay [4], 5.32 nM; in assay [5], 0.011 nM; in assay [6] it was 1.02 nM.

B2: N83G3-h5 humanized single-domain antibody (Fc fusion)
VHH: EVQLVESGGGLVKPGGSLRLSCAASGASLDIYVMGWYRQAPGKGLELVAVITGSGNTNYADSVKGRFTISRDDSKNTLYLQMNSLKTEDTAVYYCAGGRPSRYYRDSGTWADFWGQGTTVTVSS
notes: also called humanized mutant N83G3-h5; humanized molecule N83G3-h5
With B2, in assay [7], the Kd (commonly the free concentration of one partner at which half of the binding sites on the other are occupied at equilibrium, for simple one-to-one binding) was determined as 0.0747 nM; the koff is 5.52e-05 s⁻¹; the kon is 737000 M⁻¹ s⁻¹.

B3: bispecific antibody 2N83G3×IMCR (bispecific antibody)
chain 1: QVQLVESGGGLVQAGGSLRLSCAASGASLDIYVMGWYRQATGKERDLVAVITGSGNTNYADSVKGRFTISRDDAKNTLYLQMSSLKPEDTAVYYCAGGRPSRYYRDSGTWADFWGQGTQVTVSSGGGGSGGGGSGGGGSQVQLVESGGGLVQAGGSLRLSCAASGASLDIYVMGWYRQATGKERDLVAVITGSGNTNYADSVKGRFTISRDDAKNTLYLQMSSLKPEDTAVYYCAGGRPSRYYRDSGTWADFWGQGTQVTVSSASERKSSVECPPCPAPEFEGGPSVFLFPPKPKDTLMISRTPEVTCVVVDVSQEDPEVQFNWYVDGVEVHNAKTKPREEQYNSTYRVVSVLTVLHQDWLNGKEYKCKVSNKALPASIEKTISKAKGQPREPQVCTLPPSQEEMTKNQVSLSCAVKGFYPSDIAVEWESNGQPENNYKTTPPVLDSDGSFFLVSKLTVDKSRWQEGNVFSCSVMHEALHNHYTQKSLSLSPGK
chain 2: not shown
notes: Arm 1 is 2N83G3-G1m3-FcH1n1 (two tandem N83G3 VHH on the hole Fc); Arm 2 is IMCR-ScFv-G1m3-FcKn1 (anti-CD3 scFv on the knob Fc); also called 2N83G3×IMCR BsAb
Consider B3, for which, in assay [1], the Kd worked out at 0.0544 nM, the koff turned out to be 7.65e-05 s⁻¹ and the kon turned out to be 1.41e+06 M⁻¹ s⁻¹. In assay [8], the Kd is 4.57 nM, the koff turned out to be 0.000245 s⁻¹ and the kon stood at 53600 M⁻¹ s⁻¹.
